Biological target: acetylcholine receptor
Assay: SPR, AchR immobilised, peptide 10 uM

Binder	Binding affinity (RU)
KKEWNK [6mer-1-601]	27 RU
RKAEKR [6mer-1-602]	18 RU
KRPHFK [6mer-1-603]	13 RU
KKFTKK [6mer-1-604]	24 RU
RKNADR [6mer-1-605]	20 RU
RREWFR [6mer-1-606]	15 RU
KKDHFR [6mer-1-607]	22 RU
KKACMR [6mer-1-608]	18 RU
RKNPVR [6mer-1-609]	24 RU
KKHHER [6mer-1-610]	27 RU
KKNCHK [6mer-1-611]	23 RU
KRIMER [6mer-1-612]	17 RU
KRIMKK [6mer-1-613]	14 RU
KKEEER [6mer-1-614]	12 RU
KKTSER [6mer-1-615]	18 RU
KKNTIK [6mer-1-616]	31 RU
KRHNVR [6mer-1-617]	31 RU
RKCHVK [6mer-1-618]	19 RU
KKIDKR [6mer-1-619]	23 RU
RRKTAK [6mer-1-620]	11 RU
RRMAGK [6mer-1-621]	30 RU
KKCPNR [6mer-1-622]	18 RU
RRTDWR [6mer-1-623]	21 RU
KKPPAK [6mer-1-624]	30 RU
KREDKK [6mer-1-625]	33 RU
KRPDNR [6mer-1-626]	27 RU

Binder	Binding affinity (RU)
RRTWWR [6mer-1-627]	29 RU
RRENEK [6mer-1-628]	23 RU
RKMDAK [6mer-1-629]	11 RU
KRMEPR [6mer-1-630]	14 RU
RRYSDR [6mer-1-631]	13 RU
RKDTAR [6mer-1-632]	17 RU
RKIDAK [6mer-1-633]	16 RU
KKNTMR [6mer-1-634]	12 RU
KKTTWK [6mer-1-635]	33 RU
RKYKDR [6mer-1-636]	27 RU
RRFEFK [6mer-1-637]	33 RU
KKESHR [6mer-1-638]	20 RU
KRPNVR [6mer-1-639]	24 RU
RRNCWR [6mer-1-640]	25 RU
RREMFK [6mer-1-641]	21 RU
KKYNGK [6mer-1-642]	24 RU
KRYSMR [6mer-1-643]	31 RU
RKTWFR [6mer-1-644]	31 RU
RRTTIR [6mer-1-645]	33 RU
RRCTGK [6mer-1-646]	33 RU
RKYNVR [6mer-1-647]	14 RU
KKFWEK [6mer-1-648]	17 RU
RRIAGK [6mer-1-649]	32 RU
RRCNNR [6mer-1-650]	18 RU
KRICWK [6mer-1-651]	27 RU
RRPEVK [6mer-1-652]	26 RU

Binder	Binding affinity (RU)
KRMTHR [6mer-1-653]	15 RU
KRMNDR [6mer-1-654]	23 RU
RKNMFR [6mer-1-655]	12 RU
RRPTHK [6mer-1-656]	28 RU
RRCTVR [6mer-1-657]	17 RU
RKKEMK [6mer-1-658]	20 RU
KKPSKR [6mer-1-659]	29 RU
KKYHVK [6mer-1-660]	31 RU
RKPKWR [6mer-1-661]	14 RU
KKMTER [6mer-1-662]	20 RU
KKFKDR [6mer-1-663]	26 RU
KRDHIK [6mer-1-664]	26 RU
KKCDGK [6mer-1-665]	21 RU
KRDKAK [6mer-1-1065]	23 RU
RKEDVK [6mer-1-1066]	23 RU
RRKHWK [6mer-1-1067]	38 RU
KRYHIR [6mer-1-1068]	31 RU
KKIWAR [6mer-1-1069]	23 RU
KKTCDK [6mer-1-1070]	24 RU
RKTKAK [6mer-1-1071]	38 RU
KKCTPR [6mer-1-1072]	36 RU
RKYMWK [6mer-1-1073]	27 RU
KRTCGR [6mer-1-1074]	24 RU
KKPSVK [6mer-1-1075]	38 RU
RKKEPK [6mer-1-1076]	43 RU

Biological target: acetylcholine receptor
Assay: SPR, AchR immobilized on CM5 chip, peptide 10 uM

Binder	Binding affinity (RU)
RRDCFR [6mer-1-798]	18 RU

Source: US20250011363A1, “OPTIMIZED SHORTENED PEPTIDE THAT BINDS TO ACETYLCHOLINE RECEPTOR, AND USE THEREOF” (SKINMED CO., LTD., priority 2021, published 2025)
